IntAct's records for PubMed 10512882

B1: Focal adhesion kinase 1 (Gallus gallus (Chicken)), Q00944 (parent)
chain: MAAAYLDPNLNHTPSSSAKTHLGTGMERSPGAMERVLKVFHYFENSSEPTTWASIIRHGDATDVRGIIQKIVDCHKVKNVACYGLRLSHLQSEEVHWLHLDMGVSNVREKFELAHPPEEWKYELRIRYLPKGFLNQFTEDKPTLNFFYQQVKNDYMLEIADQVDQEIALKLGCLEIRRSYGEMRGNALEKKSNYEVLEKDVGLRRFFPKSLLDSVKAKTLRKLIQQTFRQFANLNREESILKFFEILSPVYRFDKECFKCALGSSWIISVELAIGPEEGISYLTDKGANPTHLADFNQVQTIQYSNSEDKDRKGMLQLKIAGAPEPLTVTAPSLTIAENMADLIDGYCRLVNGATQSFIIRPQKEGERALPSIPKLANNEKQGVRSHTVSVSETDDYAEIIDEEDTYTMPSTRDYEIQRERIELGRCIGEGQFGDVHQGIYMSPENPAMAVAIKTCKNCTSDSVREKFLQEALTMRQFDHPHIVKLIGVITENPVWIIMELCTLGELRSFLQVRKFSLDLASLILYAYQLSTALAYLESKRFVHRDIAARNVLVSATDCVKLGDFGLSRYMEDSTYYKASKGKLPIKWMAPESINFRRFTSASDVWMFGVCMWEILMHGVKPFQGVKNNDVIGRIENGERLPMPPNCPPTLYSLMTKCWAYDPSRRPRFTELKAQLSTILEEEKLQQEERMRMESRRQVTVSWDSGGSDEAPPKPSRPGYPSPRSSEGFYPSPQHMVQPNHYQVSGYSGSHGIPAMAGSIYPGQASLLDQTDSWNHRPQEVSAWQPNMEDSGTLDVRGMGQVLPTHLMEERLIRQQQEMEEDQRWLEKEERFLVMKPDVRLSRGSIEREDGGLQGPAGNQHIYQPVGKPDHAAPPKKPPRPGAPHLGSLASLNSPVDSYNEGVKIKPQEISPPPTANLDRSNDKVYENVTGLVKAVIEMSSKIQPAPPEEYVPMVKEVGLALRTLLATVDESLPVLPASTHREIEMAQKLLNSDLAELINKMKLAQQYVMTSLQQEYKKQMLTAAHALAVDAKNLLDVIDQARLKMISQSRPH

Variants of: B1
Conditions: with src_chick SRC

Variant	effect of a mutation on the interaction
Y397F	disrupting interaction
Y576F;Y577F	decreasing interaction
Y397F;K454R	disrupting interaction
K454R	decreasing interaction
